Assay results reported in paper PMC7954794, “Protein context shapes the specificity of SH3 domain-mediated interactions in vivo” (Nature Communications, 2021).

B1: YDL146W (protein, UniProt Q12342 1-491, looked up)
Protein LDB17: MILDPLSPNIENHTQDEIIEFWEKTESIANIPKENLDESHVNSSLVAYLKFATDSYKVFINTDRDLYRMSLILLESSLFEFKKEFCLSKLQSLLNIDLLEMNMKFIIVYILLCEAKKNVYSLEIMLKFQGFTVFYNTLYTQFAYLSKYGKERTVASKHQYNSNNSSTGTSLDSLDRSLTDIDLGIIDEMKQISTVLMDLLFQIMKYCKCVIANLQIVDDFFVYYMMESMRSDTMDDMFNNAEFKLLLALNEQYMMFAKEYDIENKVYKYLINGSVSRCFTELLLLKFNRASDPPLQIMMCKIIYLILTPRGDYSPMNFFYTNDLRVLIDVLIRELQNISEDEEVLRNTLLRVLIPLLKNTQLSKTHYRKDDLNKLLNYLSTLDNICVDSPALHEHQVTVALSRKCLQQIPWLETPSTPSDGGSSVSSNNTSRNSSIVALGTPDNQNILARKGHLYSNRELDVSAESLTKRKAKAPPPPPPPPPSRKCGTPK
B2: YFR040W (protein, UniProt P43612 1-1002, looked up)
SIT4-associating protein …: MSFWPFGQNLNHSNINKILDEYFHVLHELERINPSVGKAIPAIFNNVQERGTSDSLDSIPEEYSHGDEVKTARGDQKSRFEKDDQQERYEKEEEERSMNSSESSTTSFSSGSTSKTDLDEEDISNATAPMMVTTKNLDNSFIERMLVETELLNELSRQNKTLLDFICFGFFFDKKTNKKVNNMEYLVDQLMECISKIKTATTVDLNNLIDYQEQQQLDDSSQEDVYVESDTEQEEEKEDDNNSNNKKRRKRGSSSFGNDDINNNDDDDDANEDDESAYLTKATIISEIFSLDIWLISESLVKNQSYLNKIWSIINQPNFNSENSPLVPIFLKINQNLLLTRQDQYLNFIRTERSFVDDMLKHVDISLLMDFFLKIISTDKIESPTGIIELVYDQNLISKCLSFLNNKESPADIQACVGDFLKALIAISANAPLDDISIGPNSLTRQLASPESIAKLVDIMINQRGAALNTTVSIVIELIRKNNSDYDQVNLLTTTIKTHPPSNRDPIYLGYLLRKFSNHLSDFFQIILDIENDANIPLHENQLHEKFKPLGFERFKVVELIAELLHCSNMGLMNSKRAERIARRRDKVRSQLSHHLQDALNDLSIEEKEQLKTKHSPTRDTDHDLKNNNGKIDNDNNDNDDESDYGDEIDESFEIPYINMKQNIKLRTDPTVGDLFKIKLYDTRIVSKIMELFLTHPWNNFWHNVIFDIIQQIFNGRMDFSYNSFLVLSLFNLKSSYQFMTDIVISDEKGTDVSRFSPVIRDPNFDFKITTDFILRGYQDSYKFYELRKMNLGYMGHIVLIAEEVVKFSKLYKVELISPDIQVILQTEEWQYYSEEVLNETRMMYSKILGGGSYIDDGNGNIIPQLPDNTTVLTPNGDASNNNEILDSDTGSSNGTSGGGQLINVESLEEQLSLSTESDLHNKLREMLINRAQEDVDNKNTENGVFILGPPEDKNSNSNINNTNHNSNNSNNNDNNDNNDNDNDNTRNYNEDADNDNDYDHE
B3: YJL128C (protein, UniProt P08018 1-668, looked up)
MAP kinase kinase PBS2: MEDKFANLSLHEKTGKSSIQLNEQTGSDNGSAVKRTSSTSSHYNNINADLHARVKAFQEQRALKRSASVGSNQSEQDKGSSQSPKHIQQIVNKPLPPLPVAGSSKVSQRMSSQVVQASSKSTLKNVLDNQETQNITDVNINIDTTKITATTIGVNTGLPATDITPSVSNTASATHKAQLLNPNRRAPRRPLSTQHPTRPNVAPHKAPAIINTPKQSLSARRGLKLPPGGMSLKMPTKTAQQPQQFAPSPSNKKHIETLSNSKVVEGKRSNPGSLINGVQSTSTSSSTEGPHDTVGTTPRTGNSNNSSNSGSSGGGGLFANFSKYVDIKSGSLNFAGKLSLSSKGIDFSNGSSSRITLDELEFLDELGHGNYGNVSKVLHKPTNVIMATKEVRLELDEAKFRQILMELEVLHKCNSPYIVDFYGAFFIEGAVYMCMEYMDGGSLDKIYDESSEIGGIDEPQLAFIANAVIHGLKELKEQHNIIHRDVKPTNILCSANQGTVKLCDFGVSGNLVASLAKTNIGCQSYMAPERIKSLNPDRATYTVQSDIWSLGLSILEMALGRYPYPPETYDNIFSQLSAIVDGPPPRLPSDKFSSDAQDFVSLCLQKIPERRPTYAALTEHPWLVKYRNQDVHMSEYITERLERRNKILRERGENGLSKNVPALHMGGL
B4: ABP1 001 P * (protein, UniProt P15891 2-592, looked up)
Actin-binding protein: ALEPIDYTTHSREIDAEYLKIVRGSDPDTTWLIISPNAKKEYEPESTGSSFHDFLQLFDETKVQYGLARVSPPGSDVEKIIIIGWCPDSAPLKTRASFAANFAAVANNLFKGYHVQVTARDEDDLDENELLMKISNAAGARYSIQTSSKQQGKASTPPVKKSFTPSKSPAPVSKKEPVKTPSPAPAAKISSRVNDNNDDDDWNEPELKERDFDQAPLKPNQSSYKPIGKIDLQKVIAEEKAKEDPRLVQKPTAAGSKIDPSSDIANLKNESKLKRDSEFNSFLGTTKPPSMTESSLKNDDDKVIKGFRNEKSPAQLWAERKAKQNSGNAETKAEAPKPEVPEDEPEGEPDVKDLKSKFEGLAASEKEEEEMENKFAPPPKKSEPTIISPKPFSKPQEPVKAEEAEQPKTDYKKIGNPLPGMHIEADNEEEPEENDDDWDDDEDEAAQPPLPSRNVASGAPVQKEEPEQEEIAPSLPSRNSIPAPKQEEAPEQAPEEEIEEEAEEAAPQLPSRSSAAPPPPPRRATPEKKPKENPWATAEYDYDAAEDNELTFVENDKIINIEFVDDDWWLGELEKDGSKGLFPSNYVSLGN
B5: ABP1 001 P C (protein, UniProt P15891 2-592, looked up)
Actin-binding protein: B4 Actin-binding protein
B6: ABP1 001 P E (protein, UniProt P15891 2-592, looked up)
Actin-binding protein: B4 Actin-binding protein
B7: YGL252C (protein, UniProt P32608 1-588, looked up)
Retrograde regulation protein …: MSTLSDSDTETEVVSRNLCGIVDIGSNGIRFSISSKAAHHARIMPCVFKDRVGLSLYEVQYNTHTNAKCPIPRDIIKEVCSAMKRFKLICDDFGVPETSVRVIATEATRDAINADEFVNAVYGSTGWKVEILGQEDETRVGIYGVVSSFNTVRGLYLDVAGGSTQLSWVISSHGEVKQSSKPVSLPYGAGTLLRRMRTDDNRALFYEIKEAYKDAIEKIGIPQEMIDDAKKEGGFDLWTRGGGLRGMGHLLLYQSEGYPIQTIINGYACTYEEFSSMSDYLFLKQKIPGSSKEHKIFKVSDRRALQLPAVGLFMSAVFEAIPQIKAVHFSEGGVREGSLYSLLPKEIRAQDPLLIASRPYAPLLTEKYLYLLRTSIPQEDIPEIVNERIAPALCNLAFVHASYPKELQPTAALHVATRGIIAGCHGLSHRARALIGIALCSRWGGNIPESEEKYSQELEQVVLREGDKAEALRIVWWTKYIGTIMYVICGVHPGGNIRDNVFDFHVSKRSEVETSLKELIIDDANTTKVKEESTRKNRGYEVVVRISKDDLKTSASVRSRIITLQKKVRKLSRGSVERVKIGVQFYEE

Columns and labels:
ABP1 = assay: DHFR-PCA on solid medium, bait ABP1 (Fig. 1B); type: cell-based, Saccharomyces cerevisiae; conditions: bait ABP1, label = prey; 2-4 replicates
From the text: Supplement 41467_2021_21873_MOESM8_ESM.xlsx, sheet "Fig1B" | column: medsize; medrep; Ratio; Score

Hua2 = assay: Deep mutational scanning of Abp1 SH3, Abp1-Hua2 DHFR-PCA (DMS score); type: cell-based, Saccharomyces cerevisiae; conditions: for ratio (log2 scale): HUA2_MTX2 (test) vs HUA2_S2 (reference); for ratio (log2 scale) / ratio (log2 scale) mean / frequency (reference condition) / frequency (test condition): amino acid mutation format; for ratio (log2 scale) / frequency (reference condition) / frequency (test condition): replicate 1, Fig. S3A-B; for ratio (log2 scale) mean: condition HUA2_MTX2; for ratio (log2 scale) mean / frequency (reference condition) mean / frequency (test condition) mean / frequency (log2 scale) (reference condition) mean / frequency (log2 scale) (test condition) mean: Fig. S3E; for frequency (reference condition): reference condition HUA2_S2; for frequency (reference condition) mean / frequency (log2 scale) (reference condition) mean: reference condition for HUA2_MTX2; for frequency (test condition) / frequency (test condition) mean / frequency (log2 scale) (test condition) mean: test condition HUA2_MTX2
Method: Single site mutation libraries were generated by a PCR-based saturation mutagenesis method[50] as described below. The mutagenesis was carried out on the pUC19 plasmid containing the SH3 domain sequence of ABP1 flanked by its homology arms subsequently used in the CRISPR mediated genomic re-integration. We used oligos containing degenerate nucleotides (NNN) to carry out the mutagenesis at each codon of the domain sequence. In the first step of the two-step PCR procedure (short PCR step), an amplicon was generated with an oligo containing the degenerate codon which is positioned within the domain sequence, and another oligo lying outside Abp1 sequence in the plasmid. Short PCR step was carried out with the following settings: 5 min at 95 °C, 35 cycles: 20 s at 98 °C, 15 s at 60 °C, 30 s at 72 °C, and a final extension of 1 min at 72 °C. The amplicon generated in this step was used as a mega primer in the second step (long PCR step) to amplify the whole plasmid. Long PCR step was carried out with the following settings: 5 min at 95 °C, 22 cycles: 20 s at 98 °C, 15 s at 68 °C, 3 min 30 s at 72 °C, and a final extension of 5 min at 72 °C. The long PCR product was digested for 2 h at 37 °C with DpnI. The digestion product was then transformed into E. coli MC1061 competent cells. In order to obtain most of the 64 possible codons, we recovered ~1000 colonies from each plate to retrieve the plasmid single mutant libraries. Saturation mutagenesis was carried out in a codon-position-wise manner. Mutants at each position were stored separately. Library quality control was assessed by amplifying the purified plasmid DNA preparations by PCR followed by Illumina sequencing as described below. The genomic insertion of the mutant libraries (one library per amino acid position) was performed by targeting the stuffer sequence in the ABP1 SH3-deleted strain as described in the strain construction section. ABP1 SH3-deleted yeast competent cells were co-transformed with pCAS containing the stuffer-specific gRNA and PCR amplified ABP1 SH3 single position mutated libraries from the pUC19 preparations. As for the library generation, ~1000 colonies from each plate were retrieved. Glycerol stocks of yeast cells were kept for each position (58 different stocks corresponding to the 58 amino acid positions of Abp1 SH3). The stocks were also validated by Illumina sequencing (see below).
Liquid DHFR-PCA experiments were performed following the generation of the ABP1 SH3 single position mutated yeast strains and were performed in biological independent duplicates. An overnight culture was started in YPD + NAT by adding the same number of cells from each yeast mutant strain (master pool). Then, the master pool and Hua2-DHFR F[3] or Lsb3-DHFR F[3] preys strains were mixed in YPD (2:1) for mating and incubated for 8 h at 30 °C. Diploid cells were selected the first time by transferring the mixture in a YPD + NAT + HPH (OD 0.5) culture for 16 h at 30 °C. The next day, the first diploid selection was transferred in SC complete pH 6.0 + NAT + HPH at 0.5 OD and the culture was grown for 24 h at 30 °C. The validation of the yeast mutant libraries was done the next day with a fraction of the diploid cells (first DHFR-PCA experiment time point without PCA selection, reference condition S2) by amplifying ABP1 SH3 genomic sequence followed by Illumina sequencing as described in the section below. Following the selection, diploid cells OD was read using a TECAN Infinite F200 Pro, and dilutions to 0.1 OD in PCA selection media without agar in a 50 mL tube was done. Tubes were incubated at 30 °C for 72 h (second-time point of the DHFR-PCA experiment, first PCA selection). A fraction of the cells (5U OD) was collected for Illumina sequencing. The cells from the first PCA step were grown for a second PCA selection step using the same procedures. […]

Row | Molecule | medrep (log2 median colony size normalized to plate background, PCA score) (ABP1) | ratio (log2 scale) (Hua2) | ratio (log2 scale) mean (Hua2) [log2 scale] | frequency (reference condition) (Hua2) | frequency (reference condition) mean (Hua2) | frequency (test condition) (Hua2) | frequency (test condition) mean (Hua2) | frequency (log2 scale) (reference condition) mean (Hua2) | frequency (log2 scale) (test condition) mean (Hua2)
1 | B1 | 3.631 |  |  |  |  |  |  |  | 
2 | B2 | 2.847 |  |  |  |  |  |  |  | 
3 | B3 | 2.693 |  |  |  |  |  |  |  | 
4 | B4 |  | -1.421 | -1.432 | 0.001041 | 0.0009397 | 5.39E-06 | 2.69E-06 |  | 
5 | B5 |  | 2.7124 | 3.075 | 0.0005961 | 0.0004649 | 0.001896 | 0.001734 | -1.441 | -1.435
6 | B6 |  | 2.627 | 2.654 | 0.0007975 | 0.0006949 | 0.002419 | 0.002135 | -1.4398 | -1.434
7 | B7 | 2.12 |  |  |  |  |  |  |  | 
